Assay: soluble on expression in E. coli; label from the status in PepcDB or PDB records

Soluble on expression in E. coli, not soluble:
MGSDKIHHHHHHGDDDDPVVPELNKLTKVSCYKDGASSPLFTADINYTSDGKISNINLGVDKLLFIYSDGKFSVTGIHSGEVIEEYTLSGNVITSKKISQENPYASNEIYVSDEYSYRYSGSNWVLTSWNARWPKEFGTGYEERSYPEYEKYTWENGNVVLYAQSLDSREMRYEYSVAEAPKNFPLRVIGSFSPVGFESVTPLNLLYGIQNRNLPIRAYTYTIPNQSEVKAEYKYTYTTVGDYITGMTIDENDGGTASSYKYTFEYNFAVK
MGSDKIHHHHHHGKGQQPSEENEDPKAKEILQGIWLDDETETPLMRIIGDTIYYSDAQSAPVYFKILKDTLYTYGKDVTHYQIDKQSEYSFWFHSLADNIIKLHKSEDPNDTLAFSFKSVEIIPTYTEVTKKDSVVMFDGVRYRAYVYINPSQMKVVKTTYSEDGISMDNIYYDNVMHICVYEGKKSLYAKDITKQMFVDVIPTDFLQQAILSDMNFIGIDRKGYHYQALVCIPESPVCNLVNLTISFDGKLNITAAKYK
MGSDKIHHHHHHGVDTKGPAGIDATELYASLDLSLLVGNSNVTTKSSELTGPTDGTEENMTKDERSVSDCYIAIFKYDSKTKNVGDFLTSYYSSNGSISESLIFKIPKDKSERTDLKIVVIANAAASVSKYGLASASQISYADLKGKTLVEVPNVFVKVGETEIAKGDGGTYPDNKGGVYVNISEKILGLDQPANTPVEVKLIQRTAAIMLQQFKILKSDGTEYDNVEIKGLSLLNSKTIGQVAGEVSSGEKLYGMQSVNGTTERLYSYENTSSSQPTTLKIDYVYNNGETGSCSFPIKSRLSEASDPKAEVWAGYLYKLTVKLTNAAVDVTVKCVTQDWVFNKDHELEFTF
MGSDKIHHHHHHHLKTQAISFVIHFAHRPVKRYDSPLSFLCSRRVQKIKIMLRATSLFITLGLSHSAWALVPPDYQEPPSDFSAEIEAGLQINTGNTESSSFNGRTKLVYDTDKFRQEGVFKAYFASDSEKTTSEKYDVQLQSSYKIYSGYIFARGDFTEDRFGSYTRISTVSTGYGFDAISGDSTKLSLEVGPGYRYNLPQVSESVPDPEADREIILRTAAKFEQKIHEYTSFNADLTAETGEANNTVTLDMSYKNTLFQDWAFKIGMNIKYTEVVPEGSKQTDTVTTFNLLYTFK
MGSDKIHHHHHHHVETIKNTFLNPKSNKVLVVAHRGNWRSAPENSTAAIDSAIAMKVDIVEIDIQKTKDGQLILMHDNTLDRTTTGKGEIKNWTLADIKKLKLKDKDGKVTNYVVPTLEEALLTAKGKIMVNLDKAYDIFDDVYAILEKTETQNQVIMKGGQPIETVKREFGSYLDKVLYMPVIDLGNKEAEKIITDYLKELRPAAFEIIYSDPKNPLPPKIKQLLFKKSLIWYNTLWGSLAGNHDDNLALTDPEKSYGYLIEQLGARILQTDQPAYLLDYLRKKGWHN
MGSDKIHHHHHHIPNLEKSGSNFCMPFKGINVVKKCNMEYFLLNADFVNLEKTVFKKSQTLDNVCTGPENTFKTPDAGNYVVRYGERVLMTYKAGSNYRKCIGTYDVDDDLFTCVMPTDNNGFEGLEMGGFLYDPVTGEPHRDDGSVEVFCKIPHKF
MGSDKIHHHHHHITPSISSKADNLIPRTNLEISNGQVFNESQIRLRGWGLNASGIKAIDIYVDGTWKKTLVKGDGFGLSRPDVKQAFPEYPDADYSGYDYYMYLPDGNHTLRVWAIGNDNSKVYSEANITVDTSNSKGTQLVNYARKFIGVPYVWGGDTPNGFDCSGLVMYCYAHFGVNLPHYTGDQVKYGTVVTDLQPGDLLFFGSTSDPYHVAIYSGNGYMIEAPKTGENVHETPVRSYSIAKRIF
MGSDKIHHHHHHKDSNKWKMTGDVSVQDDIMTLKGTDALAVLKNGKYKNFDLTLDLRTTPGGKGAVWFHTDPTLKKGYRIAINNDRADKVWWKMTGSLVSVRNLTKSFVKEDQWFKMDIRVAGQEIDVNINGEPVVEYIQPTAPYRTDANAYALLSEGTFAIESDGSGEIQIKNITVNVIDESTIDINAQLAEANDEQNDEIIKLHQSDFPVLDYHVHLKGGLTKEVAAKQSRKTGINYTIAPNCGIGFPITNDQQVMDYLNEMRSQPFILGMQAEGREWITTFSPETLKEFDYVFTDALTFKDNKGRRTRLWIPEETWIENEEQYMDMIVDRICSVLEEPVDIYVNPCFLPSPMDKRFDEFWTEARMNRFVEALAKSGKALEINELYNIPNKAIIMKAKAAGVKFTFGSNNVTPNVSDLSYSIRMMKECGLTAEDMYKPKVKI
MGSDKIHHHHHHKDTKWVDVPTGTPPEGSVTGKPGETEEPDDPDPTDKTFINCSYIRGDFFETNRISGASMGACNDLIYLTARPYADGDLTFDLPVNDATLTGAATYAASYNGRNGVLKLDGTGKMNAGDGLLHSPDGAFKKFTFGTYIYVSEWVDGACLFKKVDGGSVVIAFQLGATEGNLKLTVGSATATVTNSALKSGAWHYVAVTYDGGAAKLYIDTNNTATDFTGSLPASVPNTRADFVMGENLKGYLDETFVNSLLMGTLGRNPISFDNWNNTKTLAYWKYDDAAKPGKDSHTWAIRLEQIRTALNGQAGDRKIRLGIAGGEWLKMVGNATARTNFANNVKKVIEQYNLDGADLDFEWAYSGTDLSNYSKAIVQLREVLGKDVFLTVSLHPVSYKISAEAIAAVDFISLQCYGPSVELFSMERFKSDGKAAVDYGIPQDKLVMGVPFYGTTGTAGEQAAYFDLVGKGNLTNTSADTWSYEGKNYTLNSQNTIRQKTQYVCENGFGGIMSWDLATDVDVTHEMSLLKAVKEELDYYANPTVE
MGSDKIHHHHHHLASHHSLLNHQRHFERIGPDYRNGDSVSFLDIKHTFGLQHIRVGKWVNREESALAANLIFDSLADLANILAVPPELIGLRGSLRFAFGHGGQKGVQAHYSPAYRELALAKNAGAGALAHEFWHAFDHYIADKMFIDDSILDPYLSSLILSEQTTNTTRTNFSRANLFACASDNWLADKSIIAHPLNKKLSSLFKVTLLSANGQEPHDYVRRSIALDKQQRSHYFAKPTEMMARAFESCIEMYSQDYANISNPYLVNSTIDSPLAKHGAYPDAQHCREIYQAMMEYFEPLGLAFDKQNGQK
MGSDKIHHHHHHLDGDTQISIEALTSLSQITAEEWDACACPEDGRPLDPFTTYRFLDALEQSGSVGPGSGWQPRYLVARMDDQVIACAPMYAKGHSQGEYIFDHNWAHAYENAGGAYYPKLQIAAPFTPATGRRFLTRPGHDATGISALIQGAVQIAADNDLSSLHVTFCTEDEAIAGERIGLMRRWSQQFHWVNDGYADFDGFLASLSSRKRKNIRKERARAQAFGGEIVSLTGAQIKAEHWDAFWHFYQDTGARKWGTPYLTRAFFDIVHETLTDDMLLCLAIREGQPVAGALNFIGADTLYGRYWGCVEDHPCLHFELCYYQAIDYAIANGLSRVEAGAQGAHKLARGYLPVATHSLHWVRDAGFAEAIGRYLEAEREAVDEEIEVLTGYGPFKRA
MGSDKIHHHHHHLIKSIFNKLFNLRENNPIERPKSFSATDLGKPLAISPKNITQQESISANVVYVDLSALFYSLLFPARVNDAGGIANNLERRVMAEIEHALASPQVIAEKVLKLPSKVLELDRKLADPQFDIKALLALIERDPLLSVEVLKLCNSPAFKRSDRDITNLQQALVQLGREQLRKFVTTCLVREMLDIKPIYFRRFGAEIWRHSMQVAFLASELSDEDQDTAFLLGLLHDVGKLAIFKMLLDAFVQAEPGEQPNSGLFRQVMTTKSLTLSSLLAKHWQLPNTFETELDRLASVNSRPQAGLAAVVWRANVISEISMLHQAGQLSPEILANLLQQVNLEQTQFDGLHQKLLQF
MGSDKIHHHHHHLKIITVSGPPSSGKTSVIIKTIEYLKKDQLEIGVVKFDSLSTYDDQMYKKLGVKVKVGLSGNLCPDHYYMTNIEDCVKWGVSEKLDMLISESAGLCNRCSPHIRDVLAICVIDNLSGINTPKKIGPMLRLADIVVITKGDIVSQAEREVFAFRAKQSSPRASIVFINGITGQGAYDLSLRLKEANDYESVIDKKLRFSMPAAVCSYCTGEIRIGERYQTGNIKKIKL
MGSDKIHHHHHHLPLLLPVGSQILRNKMRSKPRILIALSSVGLGGAERQGLMFAEYLKCKHSFDVLVSTFGGEGKVSLLCKETGIQHVNIAYPLLGHRWEVWWKLISTALTLRKIKPDCIVSYCMPANAACAAVWRLTGARACIWGQRDAGLQKELLTPIPLAPRLATCFVSNSPHGAAFLENQLAIPRHKISTIPNAVKLNVAQLSRTEWRSRLKISHDAMIVTMVSNLSFRKDHETLLKAWRIGLDNQLFPQNTKLVLCGRDDSNAPVIRKLAGKLHLDNHIRFAGATDDVAGILNASDIAAFSFISEGLPNVVIESMAAGLPVVATDIPGVRAAIGSCDDNILVPPKDPAAMAHGIAKILQDPALRSRAAAANITQATSTFAPDVVFSAFAKLILSNI
MGSDKIHHHHHHLPRRYEDIYPSLPLLNSDGLEHMSAASLMSVRYFQAEPDRMPEDVFAEHHILLNLKAEPHRVQNTRDGEMRDFTFSKNDIIVTPAGMRSGWRWFAQSDVIVVTLLPDRVQRFAETELGLLLDPQQLGDLPLFSDADLCAAGVMLRDALEADDMSSAVMFEALSRVFLVKLLQRYGKRRPEDVALSSRFTSAHYNRVLAFIRANLERTITLDDLASEAGMSPSHFSRLFKDTVGTPPMQYVMAYRIEQSLAMMTDQGRALGDIALACGFADQAHFSRSFKQLMGATPRQHRSSLS
MGSDKIHHHHHHLRSNRVTQHPPLQLSLPVHLPDDETFTSYYPAAGNDELIGALKSAASGDGVQAIYLWGPVKSGRTHLIHAACARANELERRSFYIPLGIHASISTALLEGLEQFDLICIDDVDAVAGHPLWEEAIFDLYNRVAEQKRGSLIVSASASPMEAGFVLPDLVSRMHWGLTYQLQPMMDDEKLAALQRRAAMRGLQLPEDVGRFLLNRMARDLRTLFDVLDRLDKASMVHQRKLTIPFVKEMLRL
MGSDKIHHHHHHLRVKKKWFIPIGILALSSWFLYRENNQIDTTAVTVQSDKLPAAFNDYKILQIADLHGKSFGSRQKVLLKKVNKLQPDVILMTGDLIDSRRNGEEEALLLMKQLTPDYPVYFVTGNHEVRLNLTILPKLEQLGVTVLRNTSVSLEQNGQFIELLGIDDPTTTRWSEGLQEPDGIRQSLDQAQSTAETRSFQLLMAHRPEYLPLYAERKVDLVLSGHAHGGQIRLPFTDGMYAPGQGFFPDLTAGQHTMENTRLIISRGLGNSLFPFRIFNHPELIVVTLRT
MGSDKIHHHHHHLSFLYVYERSAKIGVQENCVVVESKKENLKRILPIEGVENVIIFGDASLSSNCVKQFMERDINLTWLSSRGKFYGRLESTRNVNIYRQRKQFACGEDDEFCLALAKRIILAKVKNQITILRRYRRNRPEKSVQKIIDAMAKLLPIMERVHNKDELMGHEGMAARYYYQGLAELVEPDFAFSGRNRQPPRDPFNSLLSFAYTLLMYDLYTAAVNRGLNPYASFLHSIRRGHPALCSDLMEEWRAILADSLALYVTSKGIIKRENFEKPNEEGGVYLDGIGSKAFIAEYEKKVRGRSNYLAYVDYSVSFRRAMEMQCQRLAKAIEEGDPSIYQPVVIR
MGSDKIHHHHHHLSNYINDLRQKVGNAPLILNTATGALFNNAGEVLLQERVDTKDWGFPGGYLEYGETYKKAIMREFQEDTGLSVIPEKLIQNTDDTFYKYPNGDQIQSINQFFLVRYLEGTLLSVKTGETTRLKYFKLDQPPQFFNEQHAEMFKKIQRMRE

From the DeepSol protein solubility set
